Test: yeast display, Sf9 membrane polyspecificity reagent, FACS + sequencing; frameworks hold sequencing errors
How it was run: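 Nanobodies came from a synthetic yeast display library in Saccharomyces cerevisiae BJ5465, induced with galactose for 36–48 hours and stained for 1 hour at 4 °C with 10% biotinylated, detergent-solubilized Sf9 membrane reagent. Cells were enriched on streptavidin microbeads and then FACS-sorted, with low and high (top ~1%) gates set on anti-HA fluorescence for expression and streptavidin fluorescence for reagent binding. Each polyreactivity label reflects the gate a clone came from. Genes were amplified by colony PCR, sequenced by MiSeq 2 × 250 and filtered by CDR length.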

Row | Sequence | polyreactivity (PSR sort gate)
1 | QVQLVESGGGLVQAGGRLRLICAASGFIFGTYAMGWYRQAPGKEREFDAAINWGGGRTYYADSVKGRFTISRDNAKNTVYLQMISLKAEDTAVYYCNIRLIYYRGSYYSLRFDYWGQGTQVTLSS | high polyreactivity
2 | QVQLVESGGGLVQAGGRLRLICAASGSIFVSYALGWYRQAPGKERELVAAISTTGGRTRYADSVKGRFTISRDNAQNTVYLQMNSLKPEDTAVYYCAAVGARKMYYWGQGTQVTVSS | high polyreactivity
3 | QVQLVESGGGLVQAGGRLRLICAASGSTFVINDMGWYRQAPGKERELVASISWSGGDTYYADSVKGRFTISRDNAKNTVYLQMNSLKPEDTAVYYCNRVSPYGSYDYWGQGTQVTVSS | low polyreactivity
4 | QVQLVESGGGLVQAGGRLRLRCDPSGLTSYYAMGWYRQAPGKERELVSRIRSRSGSTYYADSVKGRFTISRDNAKNTVYLQMNSLKPEDTAVYYCNARQLLYAIRDSWGQVTQVTVSS | high polyreactivity
5 | QVQLVESGGGLVQAGGRLRLSCAASARIFYSKVMGWYRQAPGKERELVAAISGRTGGTYYADSVKGRFTISRDNAKNTVYLQMNSLKPEDTAVYYCAARVIDYYGSGPYDYWGQGTQVTVSS | low polyreactivity
6 | QVQLVESGGGLVQAGGRLRLSCAASGAIFDRNVMGWYSQAPGQERELVAAISGSGGRTYYADSVKGRFTISRDNAKNTVYLQMNSLKPEDTAVYYCAARAFRVVPGGDYWGQGTQVTVSS | high polyreactivity
7 | QVQLVESGGGLVQAGGRLRLSCAASGCTSGLNVRGWYRQAPGQERELVAAMSTGGGSTYYADSVKGPFTISRDNAKNTVYLQMTSLQPEDTAVYYCAADQSSVQDFIYNYWAQGTQVTVSS | low polyreactivity
8 | QVQLVESGGGLVQAGGRLRLSCAASGFIFGSYAMGWYRQAPGKERELVAVISSSGGRTYYADSVKGRFTISRDNAKNTVYLQMNSLKPEDTAVYYCNAKSRLFPTYRIYDYWGQGTQVTVSS | high polyreactivity
9 | QVQLVESGGGLVQAGGRLRLSCAASGFIFKQYVMGWYRQAPGKERELVAAISRSGGSTYYADSVKGRFTISRDNAKNTVYLQMNSLKPEDNAVYYCNADNYYPDYDSWGQGTQVTVSS | high polyreactivity
10 | QVQLVESGGGLVQAGGRLRLSCAASGFIFLNYTMGWYRQAPGKEREMVADISNGSDRTYFADSLKGRFTISRENAKNTVYLQMNSLKPEDTAVYYCAKDRDFSSPPTESGFDYWGQGTQVTVSS | low polyreactivity
11 | QVQLVESGGGLVQAGGRLRLSCAASGFIFPLYAMGWYRQAPGKERELVAAIRASSGSTYYADSVKGRFTISRDNAKNSVYLQMNSLKPEDTAVYYCNARQYVWYPYEYWGQGTQVTVSS | high polyreactivity
12 | QVQLVESGGGLVQAGGRLRLSCAASGFIFWTYAMGWYRQAPGKERELVARISWSGGSTYYADSVKGRFTISRDTAKNTVYLQMNSLKPEDTAVYYCARLATLYESIEYDYWGQGTQVTVSS | low polyreactivity
13 | QVQLVESGGGLVQAGGRLRLSCAASGFIHYAMGWYRQAPGNERELVAAIRHSGGSTYYADSVKGRFTISRDNANNTVYIHMNSLKPEDTAVYYCAASRSGVGYRMQYWGQGTQVTVSS | low polyreactivity
14 | QVQLVESGGGLVQAGGRLRLSCAASGFKYAMGWYRQGPGKDRELVAAISSGGITSYADSVKGRFTISRDNAKNTVYLQMNSLKPEDTAVYYCNARLRHSQYAYYYWGQGTQVTVSS | high polyreactivity
15 | QVQLVESGGGLVQAGGRLRLSCAASGFTCGVYDMGWYRQAPGKERALVADIDFTGGDTYYADSVKGRFTISRDNAKNTVYLQMIRLKPEDTAVYYCAARSWGVIYDYFYLGLDYWGQGTQVTVSS | low polyreactivity
16 | QVQLVESGGGLVQAGGRLRLSCAASGFTFGDNAMGWYRQAPGKERELVAAITSSGSTNYADSVKGRFTISRDNAKNTVYLQMNSLKPEDTAVYYCNAEDSVDAPVYKDLGSEYDSWGQGTQVTVSS | low polyreactivity
17 | QVQLVESGGGLVQAGGRLRLSCAASGFTFHNNVMGWYRQAPGKERELVATISKSGGSTYYADSVKGRFTISRDHAKNTVYLQMNSLKPEDTAVYYCARRYRDYGRYGYWGQGTQVTVSS | high polyreactivity
18 | QVQLVESGGGLVQAGGRLRLSCAASGGIFRRNAMGWYRPAPGKERELVAAISRSGGRTYYADSVKGRFTISRDNAKTSVYLQMNSLKPEDTAVYYCNADYGTRAGVDYWGQGTQVTVSS | low polyreactivity
19 | QVQLVESGGGLVQAGGRLRLSCAASGGIFSAYAMGWYRQAPGTERELVAAISSGGSTKYADSVKGRVTISRDNAQNTVYLQMNSLKPEDTAVYYCAVLYIRWYTYEYWGQGAQVTVSS | high polyreactivity
20 | QVQLVESGGGLVQAGGRLRLSCAASGGTFYLIAMGWYIQAPGKERELVAAISGSGTSTYYADSVKGRFTISRDNAKNTVYLQMNSLKPEDTAVYYCAADGTYFYIYLGDRFDYWGQGTQVTVSS | low polyreactivity
21 | QVQLVESGGGLVQAGGRLRLSCAASGIIFPRYAMGWYRQAPGKERELVAAISGSGVGTYYADSVKGRFTISRDYAKNTVYIQMNSLKPEDTAVYSCATRYQWGGPYYRYDYWGQGTQVTVSS | high polyreactivity

Row | Sequence | polyreactivity (PSR sort gate)
22 | QVQLVESGGGLVQAGGRLRLSCAASGIIFYVYTMGWSRQAPGKERELVAAISGSGGSTTYADSVKGRFTISRDNAKNTVYLQMNSLKPEDTAVYYCNAKKWFYRWWKFSEFDYWGQGTQVTVSS | high polyreactivity
23 | QVQLVESGGGLVQAGGRLRLSCAASGIIIDYYTMGWYRQAPGKERELVAAINKSGGSTYADSVKGRFTISRDNAKNTVYLQMNSLKPEDTAVYYCAAEVDYSYWPEYARKYYYWGQGTQVTVSS | low polyreactivity
24 | QVQLVESGGGLVQAGGRLRLSCAASGITFYSYAMGRYRQAPGKERELVAAISTTVGSTYYADYVKGRFTISRDNPNNTVYLQMNSLKPEDTAVYYCNSYSVYAWIEYNYWGQGTQVTVSS | low polyreactivity
25 | QVQLVESGGGLVQAGGRLRLSCAASGITISGNAMGWYRQAPGKERELDAAISGRGGSTYYADSVKGRFTISRDNAKNTVYLQMNSLIPEDTAVFYCAARVPSPYVATYYYWGQGSQVTVSS | high polyreactivity
26 | QVQLVESGGGLVQAGGRLRLSCAASGLIFDYYAMGWYRQAPGKERELVAAISYSGGRTYYADSVKCRFTISRDNAKNTVYLQMNSLKPEDTAVYYCNKVVLQPVIVDHDYWGQGTQVTVSS | low polyreactivity
27 | QVQLVESGGGLVQAGGRLRLSCAASGLIFGANTMGWYSQAPGKERELVAAITSSGGSTYYADSVKGRFTISRDNAKNTVYLQMNSLKPEDTAVYFCNDRSWYPYDYWGQGTQVTVSS | low polyreactivity
28 | QVQLVESGGGLVQAGGRLRLSCAASGLIFRTYTMVWYRQAPGKERELVATITRRGGTTYYADSVKGRFTISRDNAKNTVYLQMNSLKPEDTAVYYCAAKSAYHGLVGGYYYWGQGTQVTVSS | high polyreactivity
29 | QVQLVESGGGLVQAGGRLRLSCAASGLIFSVYVMGGYRQAPGKERELVAGITTGGSTKYADSVKGRFTISRDNAKNTVYLEMNSLKPEDTAVYYCAVGKYNYRGSWDYYWGQGTQVTVSS | high polyreactivity
30 | QVQLVESGGGLVQAGGRLRLSCAASGLTFAKYSMGWYRQAPGTERELVAAITASGASTYYADSVKGRFTISRDNAKNTVYLQMNSLKPEDTAVYYCAVRRYYNDYWGQGSQVTVSS | low polyreactivity
31 | QVQLVESGGGLVQAGGRLRLSCAASGLTFGWYTMGWYRQAPGKERELVADITWSGGSTYYADSVKGRFTISRDNAKNTVYLQMNSLKPEDTAVYYCNKVWFYLEYGFSILYDYWGQGTQVTVSS | low polyreactivity
32 | QVQLVESGGGLVQAGGRLRLSCAASGLTFLPNAMGWYRQAPGKERELVAAISWSDVRTYYADSVKGRFTISRDNAKNTVYLQMNSLKPEDTAVYYCAAEIYDLPEGDYWGQGTQVTVSS | high polyreactivity
33 | QVQLVESGGGLVQAGGRLRLSCAASGLTFTYYAMGWYRQAPGKERELVATISWSGGTTYADSVKGRFTISRDNAKNTVYLQMNSLKPEDTAVYYCAADHPLYRRYDYWGQGTQVTVSS | high polyreactivity
34 | QVQLVESGGGLVQAGGRLRLSCAASGRIFGINVMGWYRQAPGKERELVARITGRGGRTYYADSVKGRFTISRDNAKNTVYLQMNSLKPEDTAVYYCAADASYEAYDYWGQGTQVTVSS | high polyreactivity
35 | QVQLVESGGGLVQAGGRLRLSCAASGRIFNIYAMGWYRQAPGKERELVAAISGSGGRTSYADSVKGRFTISRDNAKNTVYLQMNSLKPEDTAVYYCAADYSYYTSFRYDYWGQGTQVTVSS | low polyreactivity
36 | QVQLVESGGGLVQAGGRLRLSCAASGRIFPRYVMGWYRQAHGKERELVAAITYRGGSTSYADSVKGRFTISRDNAKNTVYLQMNSLKPEDTAVYYCNAYRRAGRTVGTTRRYYYLGQGTQVTVSS | high polyreactivity
37 | QVQLVESGGGLVQAGGRLRLSCAASGRIFPVYTMGWYRQAPGKERELVAAISGNGASTYYADSVKGRFTISRDNAKNTVYLQMNSLKPEDTAVYYCAAYFYYWGSTFVRYEYWGQGTQVTVSS | high polyreactivity
38 | QVQLVESGGGLVQAGGRLRLSCAASGRIFVYYAMGWYRQAPGKERELVAAINSSGGRTYYADSVKGRFTISRDNAKNTVYLQMNSLKPEDTAVYYCAARKYSYPVAAHYYWGQGTQVTVSS | high polyreactivity
39 | QVQLVESGGGLVQAGGRLRLSCAASGRTFDRYAMGWYRQAPGKERELVAAITWSGGRTYYADSVKGRFTISRDNAKKTVYLQMNSLKPEDTAVYYCAADNSYRGYHSPYDYWGQGTQVTVSS | low polyreactivity
40 | QVQLVESGGGLVQAGGRLRLSCAASGRTFFRYVMGWYRQAPGKERELVAAISRSGGSTYYADSVKGRFTISRDNAKNTVYLQMNSLKPEATAVFYCNTVARSTVVPTEFDYWGQGTQVTVSS | high polyreactivity
41 | QVQLVESGGGLVQAGGRLRLSCAASGRTFPYYVMGWYRQAPGKERELVAVIRWRGGSTYYADSVKGRFTISRDNAKNTVYLQMNSLKPEDTAVYYCAARRHIVVATYDRRYDYWGQGTQVTVSS | low polyreactivity

Source: the nanobody polyreactivity screen of Harvey et al. (2022)
